The values below come from patent US9969998B2, “Compositions of adenosine deaminase-2 (ADA2), variants thereof and methods of using same” (Halozyme, Inc., priority 2014, dated 2018).

Data set [1] can be described thus: Heparin-affinity chromatography (heparin-Sepharose, SDS-PAGE). The class given is binding. The settings on record: for Heparin Column Binding: compared to WT rHuADA2, 0.3 mg/mL protein. As for the experimental part:
To assess binding of variants to heparin, heparin-affinity chromatography was employed to identify heparin-bound variants. Heparin binding was tested by mixing 35 μL of rHuADA2 WT and variants with 20 μL heparin-Sepharose™ resin (GE Healthcare, Pittsburgh, Pa.; Cat. No. 17-0998-01), followed by incubating at room temperature for 30 min. The mixture was then centrifuged through a 0.22 μm centrifuge filter and the flow-through, containing the unbound protein, was collected for analysis on an SDS-PAGE gel. 35 μL of 1.5 M NaCl was added to heparin-Sepharose resin and incubated at room temperature (RT) for 10 min to elute the remaining heparin-bound protein from the heparin-Sepharose. Samples of purified WT rHuADA2 and tested variants, before and after mixing with the heparin-Sepharose resin, were analyzed by SDS-PAGE to compare the degree of heparin binding.

The nature of data set [2]: Heparin binding ELISA (heparin coated microtiter plate). The settings on record: Set 1; 3 μM protein. The method, then:
A 96-well plate was coated with 100 μL of 200 μg/mL heparin sodium salt (Calibochem, EMD Milipore, Billerica, Mass.; Cat. No. 375095) in Na2CO3 buffer (pH 9.6), overnight at 4° C. The wells were blocked with 5% milk in PBS, and washed 6 times with PBS. 3 μM of select rHuADA2 variants (see Table 20), WT rHuADA2 (positive control) and WT rHuADA1 (negative control) were added to the wells individually and incubated for 2 hours at room temperature, followed by washing 6 times with PBS. 100 μL of 1:1000 diluted horseradish peroxidase (HRP)-anti-FLAG antibody (Abcam, Cambridge, UK; Cat. No. Ab1238) was added to the wells to detect binding and incubated at room temperature for 1 hour. The ELISA reactions were developed by adding the 3,3′,5,5′-Tetramethylbenzidine (TMB) substrate solution (Pierce, Thermo Fisher Scientific, Rockford, Ill.) according the manufacturer's instructions and reading the optical density at 450 nm (OD450) on a plate reader.

Data set [3] in a line: Adenosine deaminase (ADA) enzymatic activity assay kit. The data set is classed as biochemical. Particulars: for adenosine deaminase activity mU/mL / ΔA/min, adenosine deaminase activity: protein diluted to 5 μg/mL, serially diluted 2 fold (Table 21); for % activity vs. WT: relative to rHuADA2 WT (Table 21).

B1: K375D: ADA2 variant SEQ ID NO:23 (protein)
chain: IDETRAHLLLKEKMMRLGGRLVLNTKEELANERLMTLKIAEMKEAMRTLIFPPSMHFFQAKHLIERSQVFNILRMMPKGAALHLHDIGIVTMDWLVRNVTYRPHCHICFTPRGIMQFRFAHPTPRPSEKCSKWILLEDYRKRVQNVTEFDDSLLRNFTLVTQHPEVIYTNQNVVWSKFETIFFTISGLIHYAPVFRDYVFRSMQEFYEDNVLYMEIRARLLPVYELSGEHHDEEWSVKTYQEVAQKFVETHPEFIGIKIIYSDHRSKDVAVIAESIRMAMGLRIKFPTVVAGFDLVGHEDTGHSLHDYKEALMIPAKDGVKLPYFFHAGETDWQGTSIDRNILDALMLNTTRIGHGFALSKHPAVRTYSWKDDIPIEVCPISNQVLKLVSDLRNHPVATLMATGHPMVISSDDPAMFGAKGLSYDFYEVFMGIGGMKADLRTLKQLAMNSIKYSTLLESEKNTFMEIWKKRWDKFIADVATK
modifications: human ADA2 K372D, mature numbering
Take B1: in data set [1], the “heparin binding compared to WT” value was “attenuated heparin binding” and the “Heparin Column Binding” value is on record as “Reduced”. Also, in data set [2], the “Average OD450, heparin binding ELISA” value was found to be 0.2. Further, in data set [3], the “enzymatic activity relative to WT rHuADA2” value was “improved enzymatic activity”; the “adenosine deaminase activity mU/mL” value stood at 123.5 mU/mL; the “ΔA/min, adenosine deaminase activity” value is recorded as 53.7; the “% activity vs. WT” value stood at 158.3%.

B2: K375E: ADA2 variant SEQ ID NO:24 (protein)
chain: IDETRAHLLLKEKMMRLGGRLVLNTKEELANERLMTLKIAEMKEAMRTLIFPPSMHFFQAKHLIERSQVFNILRMMPKGAALHLHDIGIVTMDWLVRNVTYRPHCHICFTPRGIMQFRFAHPTPRPSEKCSKWILLEDYRKRVQNVTEFDDSLLRNFTLVTQHPEVIYTNQNVVWSKFETIFFTISGLIHYAPVFRDYVFRSMQEFYEDNVLYMEIRARLLPVYELSGEHHDEEWSVKTYQEVAQKFVETHPEFIGIKIIYSDHRSKDVAVIAESIRMAMGLRIKFPTVVAGFDLVGHEDTGHSLHDYKEALMIPAKDGVKLPYFFHAGETDWQGTSIDRNILDALMLNTTRIGHGFALSKHPAVRTYSWKEDIPIEVCPISNQVLKLVSDLRNHPVATLMATGHPMVISSDDPAMFGAKGLSYDFYEVFMGIGGMKADLRTLKQLAMNSIKYSTLLESEKNTFMEIWKKRWDKFIADVATK
modifications: human ADA2 K372E, mature numbering
Turning to B2, in data set [1], the “heparin binding compared to WT” value is “attenuated heparin binding” and the “Heparin Column Binding” value was “Reduced”. Moreover, the “Average OD450, heparin binding ELISA” value in data set [2] is listed as 0.21. For the same molecule, in data set [3], the “enzymatic activity relative to WT rHuADA2” value is recorded as “improved enzymatic activity”; the “adenosine deaminase activity mU/mL” value is recorded as 108.1 mU/mL; the “ΔA/min, adenosine deaminase activity” value is on record as 47; the “% activity vs. WT” value is on record as 138.6%.

B3: K14A/R23A/K374A: ADA2 variant SEQ ID NO:56 (protein)
chain: IDETRAHLLLAEKMMRLGGALVLNTKEELANERLMTLKIAEMKEAMRTLIFPPSMHFFQAKHLIERSQVFNILRMMPKGAALHLHDIGIVTMDWLVRNVTYRPHCHICFTPRGIMQFRFAHPTPRPSEKCSKWILLEDYRKRVQNVTEFDDSLLRNFTLVTQHPEVIYTNQNVVWSKFETIFFTISGLIHYAPVFRDYVFRSMQEFYEDNVLYMEIRARLLPVYELSGEHHDEEWSVKTYQEVAQKFVETHPEFIGIKIIYSDHRSKDVAVIAESIRMAMGLRIKFPTVVAGFDLVGHEDTGHSLHDYKEALMIPAKDGVKLPYFFHAGETDWQGTSIDRNILDALMLNTTRIGHGFALSKHPAVRTYSWAKDIPIEVCPISNQVLKLVSDLRNHPVATLMATGHPMVISSDDPAMFGAKGLSYDFYEVFMGIGGMKADLRTLKQLAMNSIKYSTLLESEKNTFMEIWKKRWDKFIADVATK
modifications: human ADA2 K11A/R20A/K371A, mature numbering
Turning to B3, the “Heparin Column Binding” value in data set [1] was “Reduced”. Besides, in data set [3], the “adenosine deaminase activity mU/mL” value amounted to 72.8 mU/mL; the “ΔA/min, adenosine deaminase activity” value came out at 31.7; the “% activity vs. WT” value is listed as 93.3%.

B4: K14A/R23A: ADA2 variant SEQ ID NO:55 (protein)
chain: IDETRAHLLLAEKMMRLGGALVLNTKEELANERLMTLKIAEMKEAMRTLIFPPSMHFFQAKHLIERSQVFNILRMMPKGAALHLHDIGIVTMDWLVRNVTYRPHCHICFTPRGIMQFRFAHPTPRPSEKCSKWILLEDYRKRVQNVTEFDDSLLRNFTLVTQHPEVIYTNQNVVWSKFETIFFTISGLIHYAPVFRDYVFRSMQEFYEDNVLYMEIRARLLPVYELSGEHHDEEWSVKTYQEVAQKFVETHPEFIGIKIIYSDHRSKDVAVIAESIRMAMGLRIKFPTVVAGFDLVGHEDTGHSLHDYKEALMIPAKDGVKLPYFFHAGETDWQGTSIDRNILDALMLNTTRIGHGFALSKHPAVRTYSWKKDIPIEVCPISNQVLKLVSDLRNHPVATLMATGHPMVISSDDPAMFGAKGLSYDFYEVFMGIGGMKADLRTLKQLAMNSIKYSTLLESEKNTFMEIWKKRWDKFIADVATK
modifications: human ADA2 K11A/R20A, mature numbering
In the case of B4, the “Heparin Column Binding” value in data set [1] was “Reduced”. Moreover, in data set [3], the “adenosine deaminase activity mU/mL” value is on record as 96.9 mU/mL; the “ΔA/min, adenosine deaminase activity” value was determined as 42.1; the “% activity vs. WT” value was found to be 124.2%.

B5: K375A: ADA2 variant SEQ ID NO:22 (protein)
chain: IDETRAHLLLKEKMMRLGGRLVLNTKEELANERLMTLKIAEMKEAMRTLIFPPSMHFFQAKHLIERSQVFNILRMMPKGAALHLHDIGIVTMDWLVRNVTYRPHCHICFTPRGIMQFRFAHPTPRPSEKCSKWILLEDYRKRVQNVTEFDDSLLRNFTLVTQHPEVIYTNQNVVWSKFETIFFTISGLIHYAPVFRDYVFRSMQEFYEDNVLYMEIRARLLPVYELSGEHHDEEWSVKTYQEVAQKFVETHPEFIGIKIIYSDHRSKDVAVIAESIRMAMGLRIKFPTVVAGFDLVGHEDTGHSLHDYKEALMIPAKDGVKLPYFFHAGETDWQGTSIDRNILDALMLNTTRIGHGFALSKHPAVRTYSWKADIPIEVCPISNQVLKLVSDLRNHPVATLMATGHPMVISSDDPAMFGAKGLSYDFYEVFMGIGGMKADLRTLKQLAMNSIKYSTLLESEKNTFMEIWKKRWDKFIADVATK
modifications: human ADA2 K372A, mature numbering
In the case of B5, the “Heparin Column Binding” value in data set [1] is “Reduced”. Besides, in data set [3], the “adenosine deaminase activity mU/mL” value turned out to be 81.8 mU/mL; the “ΔA/min, adenosine deaminase activity” value was determined as 35.5; the “% activity vs. WT” value came out at 104.8%.

B6: R369D: ADA2 variant SEQ ID NO:32 (protein)
chain: IDETRAHLLLKEKMMRLGGRLVLNTKEELANERLMTLKIAEMKEAMRTLIFPPSMHFFQAKHLIERSQVFNILRMMPKGAALHLHDIGIVTMDWLVRNVTYRPHCHICFTPRGIMQFRFAHPTPRPSEKCSKWILLEDYRKRVQNVTEFDDSLLRNFTLVTQHPEVIYTNQNVVWSKFETIFFTISGLIHYAPVFRDYVFRSMQEFYEDNVLYMEIRARLLPVYELSGEHHDEEWSVKTYQEVAQKFVETHPEFIGIKIIYSDHRSKDVAVIAESIRMAMGLRIKFPTVVAGFDLVGHEDTGHSLHDYKEALMIPAKDGVKLPYFFHAGETDWQGTSIDRNILDALMLNTTRIGHGFALSKHPAVDTYSWKKDIPIEVCPISNQVLKLVSDLRNHPVATLMATGHPMVISSDDPAMFGAKGLSYDFYEVFMGIGGMKADLRTLKQLAMNSIKYSTLLESEKNTFMEIWKKRWDKFIADVATK
modifications: human ADA2 R366D, mature numbering
On to B6, for which the “Heparin Column Binding” value in data set [1] is “Reduced”. In addition, in data set [3], the “adenosine deaminase activity mU/mL” value was 80.2 mU/mL; the “ΔA/min, adenosine deaminase activity” value was determined as 34.9; the “% activity vs. WT” value was 102.8%.

B7: K14A/K374A: ADA2 variant SEQ ID NO:58 (protein)
chain: IDETRAHLLLAEKMMRLGGRLVLNTKEELANERLMTLKIAEMKEAMRTLIFPPSMHFFQAKHLIERSQVFNILRMMPKGAALHLHDIGIVTMDWLVRNVTYRPHCHICFTPRGIMQFRFAHPTPRPSEKCSKWILLEDYRKRVQNVTEFDDSLLRNFTLVTQHPEVIYTNQNVVWSKFETIFFTISGLIHYAPVFRDYVFRSMQEFYEDNVLYMEIRARLLPVYELSGEHHDEEWSVKTYQEVAQKFVETHPEFIGIKIIYSDHRSKDVAVIAESIRMAMGLRIKFPTVVAGFDLVGHEDTGHSLHDYKEALMIPAKDGVKLPYFFHAGETDWQGTSIDRNILDALMLNTTRIGHGFALSKHPAVRTYSWAKDIPIEVCPISNQVLKLVSDLRNHPVATLMATGHPMVISSDDPAMFGAKGLSYDFYEVFMGIGGMKADLRTLKQLAMNSIKYSTLLESEKNTFMEIWKKRWDKFIADVATK
modifications: human ADA2 K11A/K371A, mature numbering
Consider B7, for which the “Heparin Column Binding” value in data set [1] is given as “Reduced”. In addition, in data set [3], the “adenosine deaminase activity mU/mL” value stood at 78.4 mU/mL; the “ΔA/min, adenosine deaminase activity” value stood at 34.1; the “% activity vs. WT” value was 100.5%.
